In the Human Domainome abundance scans (Beltran et al. 2025):
± gives the uncertainty stated by the source.

B1: SH3 and PX domain-containing protein 2B, residues 155 to 209; numbered along this chain, A1X283 (parent)
chain: EQYVVVANYQKQESSEISLSVGQVVDIIEKNESGWWFVSTAEEQGWVPATCLEGQ

Variants of: B1
Test: abundance fitness (aPCA) (normalised: wild type 0, dead -1); higher = more abundant; growth selection in yeast, the domain comes from the species named
Settings: Homo sapiens

Row | Variant | abundance fitness
1 | V4I | 0.082 ± 0.13
2 | V4A | -0.047 ± 0.082
3 | V4Q | -0.018 ± 0.15
4 | V4Y | 0.046 ± 0.21
5 | W46C | -0.233 ± 0.3
6 | W46I | -0.299 ± 0.16
7 | W46M | -0.039 ± 0.095
8 | W46Q | -0.37 ± 0.18
9 | W46D | -0.652 ± 0.2
10 | C51F | -0.212 ± 0.1
11 | C51K | -0.245 ± 0.14
12 | C51Y | -0.271 ± 0.12
13 | C51M | -0.787 ± 0.36
14 | C51L | -0.267 ± 0.085
15 | C51S | -0.219 ± 0.087
16 | V6E | -0.366 ± 0.11
17 | V6P | -0.529 ± 0.16
18 | V6Y | -0.262 ± 0.17
19 | V6K | 0.056 ± 0.15
20 | G22P | -0.83 ± 0.15
21 | G22N | -0.33 ± 0.16

Row | Variant | abundance fitness
22 | G22I | -1.05 ± 0.21
23 | G22D | -0.246 ± 0.14
24 | G22W | -0.834 ± 0.11
25 | G22F | -0.91 ± 0.26
26 | G22R | -0.549 ± 0.078
27 | N8V | -0.296 ± 0.075
28 | N8K | -0.083 ± 0.17
29 | N8Y | -0.448 ± 0.18
30 | N8P | -0.069 ± 0.15
31 | Q55N | -0.551 ± 0.29
32 | Q55L | -0.138 ± 0.15
33 | Q55I | -0.099 ± 0.11
34 | Q55R | 0.054 ± 0.12
35 | Q55T | -0.07 ± 0.27
36 | Q55W | -0.329 ± 0.3
37 | T40V | -0.042 ± 0.061
38 | T40S | 0.015 ± 0.075
39 | T40E | -0.337 ± 0.095
40 | T40M | -0.065 ± 0.14
41 | T40W | -0.354 ± 0.098
42 | T40F | 0.02 ± 0.11

Row | Variant | abundance fitness
43 | T40K | -0.035 ± 0.11
44 | T40Q | 0.063 ± 0.11
45 | T40D | -0.234 ± 0.099
46 | I27M | -0.185 ± 0.11
47 | I27D | -1.05 ± 0.22
48 | I27H | -0.908 ± 0.23
49 | I27A | 0.037 ± 0.13
50 | I27P | -0.008 ± 0.13
51 | I27Y | -0.149 ± 0.21
52 | I27R | -0.277 ± 0.058
53 | I27S | -0.404 ± 0.085
54 | I27E | -0.944 ± 0.16
55 | S14G | -0.071 ± 0.063
56 | S14N | 0.083 ± 0.45
57 | S14A | -0.13 ± 0.11
58 | S14M | -0.05 ± 0.13
59 | L19Y | -0.665 ± 0.45
60 | L19K | -0.957 ± 0.14
61 | L19C | -0.035 ± 0.13
62 | L19G | -0.838 ± 0.093
63 | L19A | -0.482 ± 0.1

Row | Variant | abundance fitness
64 | L19F | -0.441 ± 0.18
65 | S20R | -0.082 ± 0.074
66 | S20Q | -0.126 ± 0.17
67 | S20E | 0.09 ± 0.21
68 | S20Y | -0.143 ± 0.11
69 | S15Y | -0.092 ± 0.092
70 | S15R | 0.04 ± 0.073
71 | S15T | -0.103 ± 0.12
72 | S15L | -0.27 ± 0.079
73 | S15V | -0.119 ± 0.095
74 | S15I | -0.201 ± 0.14
75 | S33E | -0.002 ± 0.12
76 | S33Q | 0.074 ± 0.19
77 | S33P | -0.5 ± 0.13
78 | S33L | -0.242 ± 0.094
79 | S33F | -0.229 ± 0.13
80 | S33N | -0.09 ± 0.14
81 | S33M | -0.272 ± 0.14
82 | S33V | -0.212 ± 0.077
83 | S39F | -0.241 ± 0.1
